Laboratory results: patent JP2007501612A (dated 2007)

How the values were obtained:
sNogoR344-Fc = target: T1, sNogoR344-Fc (rat, UniProt Q99M75 26-344); experiment: SPA bead competition: inhibition of 125I-Nogo66 binding to immobilised sNogoR344-Fc
T1 construct: also called Fc-sNogoR344; Ig-sNogoR344; not shown: hinge region and Fc region of rat IgG1
T1 chain: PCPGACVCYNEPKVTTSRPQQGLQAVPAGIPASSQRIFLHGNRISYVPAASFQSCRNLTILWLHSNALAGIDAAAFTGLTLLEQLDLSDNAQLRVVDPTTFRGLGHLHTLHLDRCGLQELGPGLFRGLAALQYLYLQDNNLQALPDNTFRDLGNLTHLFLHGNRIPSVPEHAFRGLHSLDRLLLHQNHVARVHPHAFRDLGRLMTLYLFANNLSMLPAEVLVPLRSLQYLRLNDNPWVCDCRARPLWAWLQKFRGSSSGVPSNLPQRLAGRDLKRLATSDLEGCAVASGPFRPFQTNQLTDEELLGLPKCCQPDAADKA

[1] = target: Nogo receptor-1 (species and form not stated); experiment: method not given
[2] = target: T2, mutant peptide Gln117Ala LDLSDNAALRVVDPTT (rat); experiment: ELISA, peptide on MaxiSorp plate, serial dilution of 7E11
T2 construct: also called Gla117Ala (so in the source)
T2 peptide: LDLSDNAALRVVDPTT

[3] = target: T3, mutant peptide Arg119His LDLSDNAQLHVVDPTT (rat); experiment: as above
T3 peptide: LDLSDNAQLHVVDPTT

IC50 (sNogoR344-Fc): 400 nM | Kd [1]: 100 nM | fold increase of EC50 against the original peptide [2]: 30 fold | fold increase of EC50 against the original peptide [3]: 25 fold
B1: monoclonal antibody 7E11 (antibody, V domains shown)
VH: VQLQESGAELVMPGASVKMSCKASGYTFTDYWMHWVKQRPGQGLEWIGAIDPSDSYSSYNQNFKGKATLTVDGSSSTAYMQLSSLTSEDSAVYYCARRITEAGAWFAYWGQGTTVT
VL: DVVMTQTPLSLPVSLGDQASISCRSSQSLVHSNGNTYLHWYLQKPGQSPKLLIYKVSNRFSGVPDRFSGSGSGTDFTLKISRVDAEDLGVYFCSQSTHVPFTFGGGTKLEIKR
